The supplement of paper PMC9170038

Tested on: MS2 coat protein
Experiment: apparent KD of MS2 coat protein; designed switch direction (-1 OFF switch, 1 ON switch): -1; higher = weaker reporter binding
In short: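 Stalled E. coli RNA polymerase transcribed designed RNA switches on Illumina chips, which were then titrated with SNAP-549-labelled MS2 coat protein, doubling from 0.7 or 1.5 nM to 3 µM. Steps lasted from 0.8–1.5 h at the lowest concentration to 10–20 min at the highest. The apparent KD is each design's median over clusters of curve-fitted normalised fluorescence.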

[1] = input ligand: microRNA oligo, concentration not stated
[2] = Eterna round: R95, input ligand: FMN 200 uM
[3] = Eterna round: R95, input ligand: microRNA oligo, concentration not stated
[4] = Eterna round: R95, input ligand: none

| Sequence | apparent KD of MS2 coat protein (input ligand: FMN 200 uM) [µM] | apparent KD of MS2 coat protein [1] [µM] | apparent KD of MS2 coat protein (input ligand: none) [µM] | apparent KD of MS2 coat protein [2] [µM] | apparent KD of MS2 coat protein [3] [µM] | apparent KD of MS2 coat protein [4] [µM] |
| --- | --- | --- | --- | --- | --- | --- |
| CGUUGGUCAGGAUAUGGUGGGCUGGUCGCGCGGCCGGGUGGCUAGAAGGGACAUGAGGAUCACCCAUGUACGGC [excls4-IX] (Eterna round: R96, puzzle: Exclusion 4) | 0.0603 | 0.0301 | 0.0489 | – | – | – |
| UUAUUAUAUGUAGGAUAUGCAUAUUAUUAUUAUGCAGAAGGACAUGAGGAUCACCCAUGUAUGUUAUUAUUAUAUAUUAUAUAU [Title] (Eterna round: R96, puzzle: Exclusion NG 1) | – | 0.0207 | – | – | – | – |
| AAGAAACAUGAGGAUCACCCAUGUGAGGAUAUGAAAAAGAAAAGAAAAGAAAGAAGACUCAGAAGGCACAAAGG [salish99-ex1_r3_022] (puzzle: Exclusion 1) | – | – | – | 0.0333 | 0.0485 | 0.0457 |
| GUAGAGUCAGGAUAUACGAGAUCGAAAGAUCGGCGGUCUGUACAUGAGGAUCACCCAUGUAGAAGGGACUCUAC [ChP 11-04-2015 #6] (puzzle: Exclusion 2) | – | – | – | – | 0.0153 | – |
| ACUAGAUGAGGAUAUACACAUUUUAGUGUUCCUCUAGAUUAACAUGAGGAUCACCCAUGUAGAAGGCAUCAUUA [Exclusion 2 - 9] (puzzle: Exclusion 2) | – | – | – | – | 0.065 | – |
| AAGCUUUUUGGUGACCUCGACAUGAGGAUCACCCAUGUCGUAUUAGAACUUCGGACGAUGAUCGUGCUCGUCAUAAG [Eternabot (Original) Solution 43] (Eterna round: R97, puzzle: Sensor, turn-off variant 1) | 0.598 | – | 0.677 | – | – | – |
| AAAUUGCUAGAGGAUAUCGGAUAGGAUUUAUUACGAGAAGGUUAGACAUGAGGAUCACCCAUGUUCUGUUGGGA [EX6 #24] (Eterna round: R97, puzzle: Exclusion 6) | 0.0895 | – | 0.0369 | – | – | – |
| GCUGGAAAAGGAUAUACAUAACGUGCGUCAGCACGAGACCUACAUGAGGAUCACCCAUGUAGAAGGUUUCCAGC [EX2 #75] (Eterna round: R97, puzzle: Exclusion 2) | 0.0228 | – | 0.0168 | – | – | – |
| CUAGCGGAUGUAGGAUAUCGGACUGUUUCAGUCUGAGAAGGACAUGAGGAUCACCCAUGUAUAGCUGCGUGAGUAGCUCGCUAG [JL ENG1 3.96] (Eterna round: R96, puzzle: Exclusion NG 1) | 0.0392 | 0.0175 | 0.0198 | – | – | – |
| UAAUACAAGCAAAGAUCUUACAUGAGGAUCACCCAUGUGCUCGUCUUAUAAAGUACUAUCACGAAAGUGAUAGUACU [Mat - Sensor v3 - turn-off var 1 - Eli Mod - D94] (puzzle: Sensor v3, turn-off variant 1) | – | – | – | 0.0293 | 0.202 | 0.0346 |
| GCAGAUCACGUGAGGAUAUCGUCUACCUCGGUAGUCGAGAAGGCACAUGAGGAUCACCCAUGUGAGUGAUCUGC [Omei Ex4B B2] (Eterna round: R97, puzzle: Brourd's mod of Exclusion 4) | 0.0136 | – | 0.0176 | – | – | – |
| AAGGAACGAGGAUAUGCAGGUUGAGCUCGAGUUCGACCGGAACAUGAGGAUCACCCAUGUAGAAGGUGUAUCCC [Vedibe] (puzzle: Exclusion 2) | – | – | – | – | 0.024 | – |
| AACGUGUAAGGAUAUCUGCUUAUGCUCGGCAAUGCACCGAUAGAGAAGGUACAUGAGGAUCACCCAUGUUCCAA [EX4 A.16] (Eterna round: R97, puzzle: Exclusion 4) | 0.0167 | – | 0.0158 | – | – | – |
| AAGUAGGGAGGAUAUACAUAGAUACAGAUUCAUGUAGAACUACAUGAGGAUCACCCAUGUAGAAGGCCCUAAUA [AJ 37] (Eterna round: R96, puzzle: Exclusion 2) | 0.255 | 0.0251 | 0.0279 | – | – | – |
| GUGGUACAUGAGGAUCACCCAUGUAAGGAUAUAGUCGUCUGGUGGUCGCGGGUGGUGGCUAGAAGGUGCGUGCG [-19.6, -16.8 kcal, A 19%] (Eterna round: R97, puzzle: Exclusion 1) | 0.0939 | – | 0.125 | – | – | – |
| GGUCCACAUGAGGAUCACCCAUGUUAGGAUAUCUCCUGCCUCCUAAAUGGAAGCAGACAGAGAAGGAACAUCAA [Soanatra] (puzzle: Exclusion 1) | – | – | – | – | 0.0245 | – |

| Sequence | apparent KD of MS2 coat protein (input ligand: FMN 200 uM) [µM] | apparent KD of MS2 coat protein [1] [µM] | apparent KD of MS2 coat protein (input ligand: none) [µM] | apparent KD of MS2 coat protein [2] [µM] | apparent KD of MS2 coat protein [3] [µM] | apparent KD of MS2 coat protein [4] [µM] |
| --- | --- | --- | --- | --- | --- | --- |
| UUUUAGCAAGCGAGAUCCCACAUGAGGAUCACCCAUGUGCAUCCAGAAUUACUUUUUGCAUAAGCUCGUCUUAUAUA [JR_STOV1_v2_Sub080] (Eterna round: R97, puzzle: Sensor, turn-off variant 1) | 0.0588 | – | 0.0645 | – | – | – |
| CUCUAGUCAGGAUAUCACGUUUACCGUGCACUCACAAAGCCUGAGAAGGGACUUGAGGAUCACCCAAGUGGGAA [Reedbequ] (Eterna round: R97, puzzle: Exclusion 4) | 0.211 | – | 0.231 | – | – | – |
| UGGGUACUCCAUAGAAGAAACAUGAGGAUCACCCAUGUAGGGCAAGUUUUUUGCUCGUCAUAGGUUGAGGGAUUGGA [JR_SV3TOV1_Sub016] (puzzle: Sensor v3, turn-off variant 1) | – | – | – | 0.685 | 0.343 | 0.978 |
| GGUGGUAUGUCAGGAUAUACAGCCUAAAUGGAAGUAGAAGGGACACAUGAGGGUCACCCAUGUGACAUGAGGAUCACCCAUGUA [Hi3 10-05-2015] (Eterna round: R96, puzzle: Exclusion NG 1) | 0.064 | 0.0411 | 0.0607 | – | – | – |
| UAAUAAAGUGUGAGGAUAUGCUGGUCCAUAGAUCAGCAGAAGGCACAUGAGGAUCACCCAUGUAAUAUAUAAAU [Mat - Exclusion 4 - JL Mod - D57] (puzzle: Brourd's mod of Exclusion 4) | – | – | – | 0.199 | 0.0275 | 0.0245 |
| UUUUUGUGAGGAUAUCAGUAGUAGAACAAUAGUACUACUACUGAGAAGGUACAUGAGGAUCACCCAUGUUCCUC [Fiskers Ex 4 Super stable 44 mod 13] (puzzle: Exclusion 4) | – | – | – | – | 0.0195 | – |
| UCACGUUAGGAGGAUAUCGAUCCAUUAGCGCGACGAGAAGGCCUGACAUGAGGAUCACCCAUGUGGUCAAACAA [Bexelaar] (puzzle: Exclusion 6) | – | – | – | 0.0521 | 0.265 | 0.158 |
| UAUUACCUAGGAUAUACAUGAGGAUCACCCAUGUCACGGGUCAACUUGUCCUAUGCGUGUAGAAGGAGGGACCC [JL Ceriza mod 6] (Eterna round: R96, puzzle: Exclusion 3) | 0.025 | 0.0165 | 0.0254 | – | – | – |
| GUAGAGUGAGGAUAUACAAGAUCGAUAGAUCGGCGAUCCAUACAUGAGGAUCACCCAUGUAGAAGGCACUCUAC [Mat - Exclusion 2 - Eli Mod - D7] (Eterna round: R97, puzzle: Exclusion 2) | 0.218 | – | 0.0835 | – | – | – |
| CUGUUCCGUGUAGGAUAUGCAUAUUCUCAUUAUGCAGAAGGACAUGAGGAUCACCCAUGUAUGUUAUUAUCAUGUGUUACAUGC [Design 7] (Eterna round: R96, puzzle: Exclusion NG 1) | 0.22 | 0.0359 | 0.0388 | – | – | – |
| UGAGCUUGAGGAUAUACAAUGAGCUUGAGAAAUCGAGUUCGACAUGAGGAUCACCCAUGUAGAAGGCGAGUUCG [-37.5, -35.6 kcal, A 28% 1 and 1] (Eterna round: R97, puzzle: Exclusion 2) | 0.0281 | – | 0.0177 | – | – | – |
| CAUGUCCAACGAGGAUAUGGGAAAGGAAGUGUACCAGAAGGCGUACGGACAUGAGGAUCACCCAUGUCGCGCGGCGCGAUGUGG [PowerStrip EXNG 1.1] (Eterna round: R96, puzzle: Exclusion NG 1) | 0.0476 | 0.0283 | 0.0415 | – | – | – |
| GGUCCACAUGAGGAUCACCCAUGUUAGGAUAUCUCCUGCCUCCUAAAUGGAAGCAGACAGAGAAGGAACAUCAA [Soanatra] (Eterna round: R96, puzzle: Exclusion 1) | 0.113 | 0.0218 | 0.0254 | – | – | – |
| UUUUUAUAUGAAGGAUAUACUUAACAUGAGGAUCACCCAUGUGGUGUUGUGAGUGAGUGAGUUUAGUAGAAGGUCAAUUCUUUG [JMF's solution 84] (Eterna round: R96, puzzle: Exclusion NG 2) | 0.397 | 0.344 | 0.347 | – | – | – |
| ACAAGCUUUUAGAUUUUCAACAUGAGGAUCACCCAUGUUCGUCUUAGGCUAGUGCGAGUGCGGUGUACUCGUAUUAG [JL TOV1 3.84 sellena mod] (Eterna round: R97, puzzle: Sensor, turn-off variant 1) | 0.0182 | – | 0.0164 | – | – | – |
